Reference: patent US10704056B2, “Constitutively active ABA receptor mutants” (The Regents of the University of California, priority 2011, dated 2020)
Residue numbers refer to the chain shown, from its start. Numbers in names are those of the source.

B1: PYL9^CA4C: PYL9 mutant (A91W, Y160I, F161V) (protein)
chain: HHHHHHMMDGVEGGTAMYGGLETVQYVRTHHQHLCRENQCTSALVKHIKAPLHLVWSLVRRFDQPQKYKPFVSRCTVIGDPEIGSLREVNVKSGLPWTTSTERLELLDDEEHILGIKIIGGDHRLKNYSSILTVHPEIIEGRAGTMVIESFVVDVPQGNTKDETCIVVEALIRCNLKSLADVSERLASQDITQ
B2: PYL2^CA4C: PYL2 mutant (H65P, A93W, M1641, F165V) (protein)
chain: HHHHHHMSSSPAVKGLTDEEQKTLEPVIKTYHQFEPDPTTCTSLITQRIHAPASVVWPLIRRFDNPERYKPFVKRCRLISGDGDVGSVREVTVISGLPWSTSTERLEFVDDDHRVLSFRVVGGEHRLKNYKSVTSVNEFLNQDSGKVYTVVLESYTVDIPEGNTEEDTKIVVDTVVKLNLQKLGVAATSAPMHDDE
B3: K170W: PYR1 receptor mutant with amino acid substitution K170W (protein)
chain: MPSELTPEERSELKNSIAEFHTYQLDPGSCSSLHAQRIHAPPELVWSIVRRFDKPQTYKHFIKSCSVEQNFEMRVGCTRDVIVISGLPANTSTERLDILDDERRVTGFSIIGGEHRLTNYKSVTTVHRFEKENRIWTVVLESYVVDMPEGNSEDDTRMFADTVVKLNLQWLATVAEAMARNSGDGSGSQVT
modifications: synthetic mutated PYR/PYL receptor polypeptide PYR1 K170W
B4: A89W: PYR1 receptor mutant with amino acid substitution A89W (protein)
chain: B3 chain with A89W, W170K
modifications: synthetic mutated PYR/PYL receptor polypeptide PYR1 A89W
B5: F159V: PYR1 receptor mutant with amino acid substitution F159V (protein)
chain: B3 chain with F159V, W170K
modifications: synthetic mutated PYR/PYL receptor polypeptide PYR1 F159V
B6: I84Q: PYR1 receptor mutant with amino acid substitution I84Q (protein)
chain: B3 chain with I84Q, W170K
modifications: synthetic mutated PYR/PYL receptor polypeptide PYR1 I84Q
B7: H60P: PYR1 (SEQ ID NO:1) receptor mutant with amino acid substitution H60P (protein, listed as Arabidopsis thaliana)
chain: B3 chain with H60P, W170K
modifications: thale cress PYR/PYL receptor, Pyrabactin resistance 1, abscisic acid receptor PYR1 (PYR1), ABI1-binding protein 6 (ABIP6), regulatory components of ABA receptor 11 (RCAR11), At4g17870, T6K21.50
B8: M158I: PYR1 receptor mutant with amino acid substitution M158I (protein)
chain: B3 chain with M158I, W170K
modifications: synthetic mutated PYR/PYL receptor polypeptide PYR1 M158I
B9: T162F: PYR1 receptor mutant with amino acid substitution T162F (protein)
chain: B3 chain with T162F, W170K
modifications: synthetic mutated PYR/PYL receptor polypeptide PYR1 T162F
B10: V83F: PYR1 receptor mutant with amino acid substitution V83F (protein)
chain: B3 chain with V83F, W170K
modifications: synthetic mutated PYR/PYL receptor polypeptide PYR1 V83F
B11: PYR1^CA4B: PYR1 quadruple mutant (V83F, M158I, F159V, K170W) (protein)
chain: HHHHHHMPSELTPEERSELKNSIAEFHTYQLDPGSCSSLHAQRIHAPPELVWSIVRRFDKPQTYKHFIKSCSVEQNFEMRVGCTRDVIFISGLPANTSTERLDILDDERRVTGFSIIGGEHRLTNYKSVTTVHRFEKENRIWTVVLESYVVDMPEGNSEDDTRIVADTVVKLNLQWLATVAEAMARNSGDGSGSQVT
B12: PYR1^CAc: PYR1 quadruple mutant (H60P, A89W, M158I, F159V) (protein)
chain: B11 chain with H66P, F89V, A95W, W176K
B13: PYL10: wild-type ABA receptor PYL10 (SEQ ID NO:11) (protein, listed as Arabidopsis thaliana)
chain: MNGDETKKVESEYIKKHHRHELVESQCSSTLVKHIKAPLHLVWSIVRRFDEPQKYKPFISRCVVQGKKLEVGSVREVDLKSGLPATKSTEVLEILDDNEHILGIRIVGGDHRLKNYSSTISLHSETIDGKTGTLAIESFVVDVPEGNTKEETCFFVEALIQCNLNSLADVTERLQAESMEKKI
modifications: thale cress PYR/PYL receptor, abscisic acid receptor PYL10, PYR1-like protein 10 (PYL10), ABI1-binding protein 8 (ABIP8), regulatory components of ABA receptor 4 (RCAR4), At4g27920, T13J8.30
B14: PYL6: wild-type ABA receptor PYL6 (SEQ ID NO:7) (protein, listed as Arabidopsis thaliana)
chain: MPTSIQFQRSSTAAEAANATVRNYPHHHQKQVQKVSLTRGMADVPEHVELSHTHVVGPSQCFSVVVQDVEAPVSTVWSILSRFEHPQAYKHFVKSCHVVIGDGREVGSVREVRVVSGLPAAFSLERLEIMDDDRHVISFSVVGGDHRLMNYKSVTTVHESEEDSDGKKRTRVVESYVVDVPAGNDKEETCSFADTIVRCNLQSLAKLAENTSKFS
modifications: thale cress PYR/PYL receptor, abscisic acid receptor PYL6, PYR1-like protein 6 (PYL6), ABI1-binding protein 5 (ABIP5), regulatory components of ABA receptor 9 (RCAR9), Bet v I allergen family protein, At2g40330, T7M7.15

Test system: HAB1
Experiment: In vitro PP2C phosphatase (pNPP) receptor activation assay with HAB1
Format: biochemical, Arabidopsis
Conditions: 600 nM GST-HAB1, 0-4800 nM receptor, no ABA
Description: Recombinant receptor proteins were produced as follows: Coding sequences were cloned into pET28 yielding 6×HIS (SEQ ID NO:173) fusions proteins and transformed into E. coli expression strain BL21. […]. Cells were stored at −80° C. before purification. After thawing, cells were sonicated on ice five times for 30 sec with 30 sec resting intervals. A cleared lysate was obtained after centrifugation at 12,000×g for 10 min and applied to 1 ml of Ni-NTA column (Qiagen) and washed with 20 column volumes of Buffer A containing 30 mM imidazole. Bound protein was eluted with 10 ml of Buffer A with 250 mM imidazole. The elutate was dialyzed against TBS. The purified recombinant proteins were then used together with recombinant phosphatases in receptor assays. In these assays, receptor activity is indicated by inhibition of phosphatase activity, as inferred from initial reaction velocities for GST-HAB1 mediated hydrolysis of the synthetic phosphatase substrate pNPP. Reactions contained 600 nM GST-HAB1 and either 0, 600, 1200, 2400 or 4800 nM 6×His-PYR1 or variants in a reaction buffer consisting of 33 mM Tris-OAc, pH 7.9, 66 mM KOAc, 0.1% BSA, 25 mM Mn(OAc)2, 50 mM pNPP. To infer the level of receptor activation with respect to fully activated wild type receptor, control reactions were also conducted using saturating levels of (+)-ABA (10 μM), and 600 nM wild type PYR1 and HAB1. Immediately after mixing proteins and substrates, reactions were monitored for hydrolysis of pNPP at A405 at ˜10 second intervals over 20 minutes using a Wallac plate reader. Reaction progressions were plotted, initial velocities calculated and converted to specific activities using a standard curve for 4-nitrophenol made in the same buffer system volumes/plate reader used for enzymatic reaction measurements. The values shown are expressed as %-control phosphatase activity levels as measured in the absence of receptor protein. The average specific activity level of GST-HAB1 utilized in our experiments was 4000 μmol/min/mg, when assayed on the phosphatase substrate pNPP in the absence of PYR1 or other receptors, as described using the methods above.
Full length ABI1 and ABI2 were cloned into a modified pSUMO vector (LifeSensors Inc, USA) vector yielding 6×His-SUMO fusion proteins; GST-HAB1 was expressed and purified as previously described (Park et al., 2009). Mutant receptors were cloned into pET28 yielding 6×His-fusion proteins. […]. The cultures were pre-incubated 2 hours at 30° C. and, for PP2C expression, media was supplemented with 4 mM MnCl2 one hour after inoculation. After pre-incubation, IPTG was added (1 mM) and cells were induced at 15° C. for 16 hours, after which they were collected by centrifugation, resuspended in 5 ml Buffer A (50 mM NaH2PO4, 300 mM NaCl) +10 mM imidazole, pH 8.0 and stored at −80° C. For purification, cells were thawed, sonicated on ice (60 seconds) and a cleared lysate was then applied a 1 ml-bed volume column of Ni-NTA (Qiagen, USA), washed with 20 column volumes of Buffer A+30 mM imidazole and bound protein eluted with 1 ml of Buffer A+250 mM imidazole. For receptors, the elutate was dialyzed against TBS and for PP2Cs, fusion proteins were desalted by passage over a Sephadex G50 column.
The purified receptors and phosphatases were then used in receptor assays where receptor activation is indicated by inhibition of phosphatase activity, as inferred from initial reaction velocities for PP2C-mediated hydrolysis of the synthetic phosphatase substrate pNPP in reactions containing 600 nM PP2C and either 0, 600, 1200, 2400 or 4800 nM receptor. The receptor assay buffer consisted of 33 mM Tris-OAc, pH 7.9, 66 mM KOAc, 0.1% BSA, 25 mM Mn(OAc)2, 0.1%13-ME and 50 mM pNPP. Immediately after mixing proteins and substrates, reactions were monitored for hydrolysis of pNPP at A405 at ˜2 minutes intervals using a Wallac plate reader. […]

Row | Molecule | basal receptor activity (inhibition of HAB1 phosphatase activity in the absence of ABA)
1 | B1 | highly activated in the absence of ABA
2 | B2 | highly activated in the absence of ABA
3 | B3 | increase basal activity of receptors
4 | B4 | increase basal activity of receptors
5 | B5 | increase basal activity of receptors
6 | B6 | increase basal activity of receptors
7 | B7 | increase basal activity of receptors
8 | B8 | increase basal activity of receptors
9 | B9 | increase basal activity of receptors
10 | B10 | increase basal activity of receptors
11 | B11 | dramatically increased basal PYR1 activity
12 | B12 | dramatically increased basal PYR1 activity
13 | B13 | are not full CA receptors
14 | B14 | are not full CA receptors
